Tests used:
[1] = biological target: human IL-13 wild type (human) (UniProt P35225); experiment: column 'Affinity, KD (nM)', hIL-13wt; method not given
[2] = biological target: human IL-13 variant (R130Q) (human) (UniProt P35225); experiment: column 'Affinity, KD (nM)', hIL-13v; method not given
[3] = biological target: human IL-13 variant (R130Q) (human) (UniProt P35225)
[4] = biological target: human IL-13 wild type (human) (UniProt P35225)
[5] = biological target: cynomolgus monkey rIL-13 (cynomolgus monkey) (UniProt Q0PW92)
cynomolgus monkey rIL-13 (cynomolgus monkey), sequence (Q0PW92 entry or part of it): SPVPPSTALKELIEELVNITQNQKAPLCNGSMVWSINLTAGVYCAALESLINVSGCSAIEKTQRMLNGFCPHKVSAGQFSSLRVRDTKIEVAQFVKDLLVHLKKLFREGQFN

human IL-13 wild type (human), sequence (P35225 other isoform, or with tags, fused parts or gaps limits assumed): as the sequence (Q0PW92 entry or part of it) above, with S1G, K10R, V42M, N67S, R83H, V100L, Q110R counted along it
human IL-13 variant (R130Q) (human), sequence (P35225 35-146 limits assumed, stated change not applied): as the sequence (Q0PW92 entry or part of it) above, with S1G, K10R, V42M, N67S, R83H, V100L counted along it

Kd [1]: 0.075 nM
Kd [2]: 0.076 nM
Potency, IC50 (neutralisation of hIL-13v; assay not given) [3]: 0.17 nM
Potency, IC50 (neutralisation of hIL-13wt; assay not given) [4]: 0.19 nM
Potency, IC50 (neutralisation of Cyno IL-13; assay not given) [5]: 0.9 nM
B1: 13C5, murine version (antibody, from another filing, V domains shown)
VH: QVTLKESGPGILQPSQTLSLTCSFSGFSLSTSDMGVDWIRQPSGKGLEWLAHIWWDDVKRYNPALKSRLTISKDTSSSQVFLMLASVDTADTATYYCARTVSSGYIYYAMDYWGQGTSVTVSS
VL: DIQMTQTASSLSASLGDRVTISCRASQDIRNYLNWYQRKPDGTVKLLIFYTSKLHSGVPSRFSGSGSGTDYSLTIRNLEQEDIATYFCQQGNTLPLTFGGGTKLEIKR

— patent US20180079808A1
